T1: human glycophorin A on human red blood cells (human, UniProt P02724 20-150)
T1 construct: whole, on cells; also called human GPA; huGPA
T1 sequence (looked up): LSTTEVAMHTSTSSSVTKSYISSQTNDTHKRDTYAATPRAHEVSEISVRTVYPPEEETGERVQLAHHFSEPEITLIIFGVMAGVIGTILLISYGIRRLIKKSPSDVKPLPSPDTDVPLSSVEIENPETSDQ

T2: glycophorin A peptide GP5 (human, biotin at the N-terminus)
T2 construct: Residues 42 to 61 of the human glycophorin A extracellular domain
T2 peptide: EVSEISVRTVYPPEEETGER

B1: TPP-9711 FVIII-scFv fusion protein (other)
chain: ATRRYYLGAVELSWDYMQSDLGELPVDARFPPRVPKSFPFNTSVVYKKTLFVEFTDHLFNIAKPRPPWMGLLGPTIQAEVYDTVVITLKNMASHPVSLHAVGVSYWKASEGAEYDDQTSQREKEDDKVFPGGSHTYVWQVLKENGPMASDPLCLTYSYLSHVDLVKDLNSGLIGALLVCREGSLAKEKTQTLHKFILLFAVFDEGKSWHSETKNSLMQDRDAASARAWPKMHTVNGYVNRSLPGLIGCHRKSVYWHVIGMGTTPEVHSIFLEGHTFLVRNHRQASLEISPITFLTAQTLLMDLGQFLLFCHISSHQHDGMEAYVKVDSCPEEPQLRMKNNEEAEDYDDDLTDSEMDVVRFDDDNSPSFIQIRSVAKKHPKTWVHYIAAEEEDWDYAPLVLAPDDRSYKSQYLNNGPQRIGRKYKKVRFMAYTDETFKTREAIQHESGILGPLLYGEVGDTLLIIFKNQASRPYNIYPHGITDVRPLYSRRLPKGVKHLKDFPILPGEIFKYKWTVTVEDGPTKSDPRCLTRYYSSFVNMERDLASGLIGPLLICYKESVDQRGNQIMSDKRNVILFSVFDENRSWYLTENIQRFLPNPAGVQLEDPEFQASNIMHSINGYVFDSLQLSVCLHEVAYWYILSIGAQTDFLSVFFSGYTFKHKMVYEDTLTLFPFSGETVFMSMENPGLWILGCHNSDFRNRGMTALLKVSSCDKNTGDYYEDSYEDISAYLLSKNNAIEPRSFSQNGGGGSTGGTGGSSGGGTGSGGGGTGGSGGTDIQLTQSPSFLSASVGDRVTITCRASSSVRYIYWFQQKPGKAPKLLIYATSFRQSGVPSRFSGSGSGTEYTLTISSLQPEDFATYYCHQRNSFPYTFGQGTKLEIKGGGGSGGGGSGGGGSGGGGSEVQLVQSGAEVKKPGASVKVSCKASGYTFTTYAIHWVRQAPGQGLEWMGYINPSSGYTRYNPKFKGRVTMTRDKSTSTAYMELRSLRSDDTAVYYCWTGTRDYWGQGTTVTVSSGGGGDENQSPRSFQKKTRHYFIAAVERLWDYGMSSSPHVLRNRAQSGSVPQFKKVVFQEFTDGSFTQPLYRGELNEHLGLLGPYIRAEVEDNIMVTFRNQASRPYSFYSSLISYEEDQRQGAEPRKNFVKPNETKTYFWKVQHHMAPTKDEFDCKAWAYFSDVDLEKDVHSGLIGPLLVCHTNTLNPAHGRQVTVQEFALFFTIFDETKSWYFTENMERNCRAPCNIQMEDPTFKENYRFHAINGYIMDTLPGLVMAQDQRIRWYLLSMGSNENIHSIHFSGHVFTVRKKEEYKMALYNLYPGVFETVEMLPSKAGIWRVECLIGEHLHAGMSTLFLVYSNKCQTPLGMASGHIRDFQITASGQYGQWAPKLARLHYSGSINAWSTKEPFSWIKVDLLAPMIIHGIKTQGARQKFSSLYISQFIIMYSLDGKKWQTYRGNSTGTLMVFFGNVDSSGIKHNIFNPPIIARYIRLHPTHYSIRSTLRMELMGCDLNSCSMPLGMESKAISDAQITASSYFTNMFATWSPSKARLHLQGRSNAWRPQVNNPKEWLQVDFQKTMKVTGVTTQGVKSLLTSMYVKEFLISSSQDGHQWTLFFQNGKVKVFQGNQDSFTPVVNSLDPPLLTRYLRIHPQSWVHQIALRMEVLGCEAQDLY
notes: The entry is the mature protein; also called PPB 7816
B2: TPP-8798 FVIII-scFv fusion protein (other)
chain: DIQLTQSPSFLSASVGDRVTITCRASSSVRYIYWFQQKPGKAPKLLIYATSFRQSGVPSRFSGSGSGTEYTLTISSLQPEDFATYYCHQRNSFPYTFGQGTKLEIKGGGGSGGGGSGGGGSGGGGSEVQLVQSGAEVKKPGASVKVSCKASGYTFTTYAIHWVRQAPGQGLEWMGYINPSSGYTRYNPKFKGRVTMTRDKSTSTAYMELRSLRSDDTAVYYCWTGTRDYWGQGTTVTVSSGGGSGGGGSGLVPRGSGGGSGGGGSGATRRYYLGAVELSWDYMQSDLGELPVDARFPPRVPKSFPFNTSVVYKKTLFVEFTDHLFNIAKPRPPWMGLLGPTIQAEVYDTVVITLKNMASHPVSLHAVGVSYWKASEGAEYDDQTSQREKEDDKVFPGGSHTYVWQVLKENGPMASDPLCLTYSYLSHVDLVKDLNSGLIGALLVCREGSLAKEKTQTLHKFILLFAVFDEGKSWHSETKNSLMQDRDAASARAWPKMHTVNGYVNRSLPGLIGCHRKSVYWHVIGMGTTPEVHSIFLEGHTFLVRNHRQASLEISPITFLTAQTLLMDLGQFLLFCHISSHQHDGMEAYVKVDSCPEEPQLRMKNNEEAEDYDDDLTDSEMDVVRFDDDNSPSFIQIRSVAKKHPKTWVHYIAAEEEDWDYAPLVLAPDDRSYKSQYLNNGPQRIGRKYKKVRFMAYTDETFKTREAIQHESGILGPLLYGEVGDTLLIIFKNQASRPYNIYPHGITDVRPLYSRRLPKGVKHLKDFPILPGEIFKYKWTVTVEDGPTKSDPRCLTRYYSSFVNMERDLASGLIGPLLICYKESVDQRGNQIMSDKRNVILFSVFDENRSWYLTENIQRFLPNPAGVQLEDPEFQASNIMHSINGYVFDSLQLSVCLHEVAYWYILSIGAQTDFLSVFFSGYTFKHKMVYEDTLTLFPFSGETVFMSMENPGLWILGCHNSDFRNRGMTALLKVSSCDKNTGDYYEDSYEDISAYLLSKNNAIEPRSFSQNPPVLKRHQREITRTTLQSDQEEIDYDDTISVEMKKEDFDIYDEDENQSPRSFQKKTRHYFIAAVERLWDYGMSSSPHVLRNRAQSGSVPQFKKVVFQEFTDGSFTQPLYRGELNEHLGLLGPYIRAEVEDNIMVTFRNQASRPYSFYSSLISYEEDQRQGAEPRKNFVKPNETKTYFWKVQHHMAPTKDEFDCKAWAYFSDVDLEKDVHSGLIGPLLVCHTNTLNPAHGRQVTVQEFALFFTIFDETKSWYFTENMERNCRAPCNIQMEDPTFKENYRFHAINGYIMDTLPGLVMAQDQRIRWYLLSMGSNENIHSIHFSGHVFTVRKKEEYKMALYNLYPGVFETVEMLPSKAGIWRVECLIGEHLHAGMSTLFLVYSNKCQTPLGMASGHIRDFQITASGQYGQWAPKLARLHYSGSINAWSTKEPFSWIKVDLLAPMIIHGIKTQGARQKFSSLYISQFIIMYSLDGKKWQTYRGNSTGTLMVFFGNVDSSGIKHNIFNPPIIARYIRLHPTHYSIRSTLRMELMGCDLNSCSMPLGMESKAISDAQITASSYFTNMFATWSPSKARLHLQGRSNAWRPQVNNPKEWLQVDFQKTMKVTGVTTQGVKSLLTSMYVKEFLISSSQDGHQWTLFFQNGKVKVFQGNQDSFTPVVNSLDPPLLTRYLRIHPQSWVHQIALRMEVLGCEAQDLY
notes: The entry is the mature protein; mostly a 2 chain molecule; also called BDD-N scFv; PPB 6705

Tests used:
[1] = target: T3, Cynomolgus monkey glycophorin A on Cynomolgus monkey red blood cells (Cynomolgus monkey); experiment: partition to Cyno RBC, human HemA plasma, 1 min;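 also: FVIII fusion spiked at 1 IU/mL into RBC suspension at whole-blood density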
T3 construct: whole, on cells; also called Cyno GPA; Cyno RBC

[2] = target: T1, human glycophorin A on human red blood …; experiment: partition to human RBC, vWF deficient plasma, 30 min
[3] = target: T3, Cynomolgus monkey glycophorin A on …; experiment: partition to Cyno RBC, human HemA plasma, 30 min;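 also: FVIII fusion spiked at 1 IU/mL into RBC suspension at whole-blood density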
Method: (§1) To evaluate partition to cynomolgus monkey or human red blood cells, whole blood was draw from Cynomolgus monkey or normal human volunteers in to anticoagulant with 4% sodium citrate (Sigma, St Louis, Mo.). The red blood cells were purified by layering the whole blood on to ficoll followed by low speed centrifugation. The supernatant containing plasma, platelets and white blood cells was discarded and the red blood cell pellet was resuspended in 10 pellet volumes of PBS (50 mM Phosphate buffer, pH7.4, 150 mM NaCl). The red blood cells were then pelleted by slow speed centrifugation and the red blood cells re-suspended in 10 volumes of PBS. This washing step was repeated 4 more times and the red blood cells finally resuspended in a volume of plasma from Hemophilia patients with less than 1% of normal levels of FVIII (GeorgeKing Bio-Medical, Overland Park, Kans.) to generate a total volume equal to the initial blood volume such that the RBC density was equal to that of normal whole blood. BDD and RBC targeted FVIII molecules were then spiked into RBC suspension in HemA plasma at 1 IU/mL, and incubated at room temperature for 2-3 hours with gentle rotation. […] An additional control was performed in which BDD or RBC targeted FVIII molecules were added at 11U/ml into the same human hemophilia A plasma and incubated for 5 minutes and 180 mins. These samples were used to determine the input FVIII activity in the presence of plasma which was used to calculate the percentage of the molecule that was bound to RBC. All plasma samples were then assayed together for FVIII activity using the Coatest SP assay (DiaPharma, Columbus, Ohio). The assay was performed following the manufacturer's instructions in a 96-well plate format. […] The plate was incubated at 37° C. for 10 minutes with shaking between each reagent addition.

[4] = target: T1, human glycophorin A on human red blood …; experiment: partition to human RBC, vWF deficient plasma, 120 min
[5] = target: T1, human glycophorin A on human red blood …; experiment: partition to human RBC, vWF deficient plasma, 5 min
[6] = target: T1, human glycophorin A on human red blood …; experiment: partition to human RBC, vWF deficient plasma, 60 min
[7] = target: T3, Cynomolgus monkey glycophorin A on …; experiment: partition to Cyno RBC, human HemA plasma, 60 min;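 also: FVIII fusion spiked at 1 IU/mL into RBC suspension at whole-blood density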
Method: as §1

[8] = target: T3, Cynomolgus monkey glycophorin A on …; experiment: partition to Cyno RBC, human HemA plasma, 120 min;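 also: FVIII fusion spiked at 1 IU/mL into RBC suspension at whole-blood density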
Method: as §1

[9] = target: T1, human glycophorin A on human red blood …; experiment: partition to human RBC, vWF deficient plasma, 1 min
[10] = target: T1, human glycophorin A on human red blood …; experiment: partition to human RBC, vWF deficient plasma, 15 min
[11] = target: T3, Cynomolgus monkey glycophorin A on …; experiment: partition to Cyno RBC, human HemA plasma, 5 min;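 also: FVIII fusion spiked at 1 IU/mL into RBC suspension at whole-blood density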
Method: as §1

[12] = target: T3, Cynomolgus monkey glycophorin A on …; experiment: partition to Cyno RBC, human HemA plasma, 15 min;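 also: FVIII fusion spiked at 1 IU/mL into RBC suspension at whole-blood density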
[13] = target: T2, glycophorin A peptide GP5; experiment: Octet, GP5 peptide on the probe, fusion protein in solution, 1:1 fit

Binder	% bound to Cyno RBC [1] [%]	percentage bound to human RBC [2] [%]	% bound to Cyno RBC [3] [%]	percentage bound to human RBC [4] [%]	percentage bound to human RBC [5] [%]	percentage bound to human RBC [6] [%]	% bound to Cyno RBC [7] [%]	% bound to Cyno RBC [8] [%]	percentage bound to human RBC [9] [%]	percentage bound to human RBC [10] [%]	% bound to Cyno RBC [11] [%]	% bound to Cyno RBC [12] [%]	Kd [13] [nM]	koff [13] [s⁻¹]	kon [13] [M⁻¹ s⁻¹]
B1	40.6	87	74.2	86.3	85.3	88.7	80.2	81.8	76.2	87	63	72.1	–	–	–
B2	0	95.7	-8.7	95.7	92.5	95.8	-19.1	2.9	76.5	95.2	-21.9	-7.8	4	0.00329	823000
